This passage reports stoichiometry N results from article PMC5726920.

Experiment [1] addresses 10 kDa heat shock protein. Put plainly: native MS.
Experiment [2] addresses triosephosphate isomerase, isoform 2, initiator methionine removed. Description: native MS.

For orientation: stoichiometry N means a count of units in the complex or per binding partner.

Chain of triosephosphate isomerase, isoform 2, initiator methionine removed (enzyme) (P60174 2-249): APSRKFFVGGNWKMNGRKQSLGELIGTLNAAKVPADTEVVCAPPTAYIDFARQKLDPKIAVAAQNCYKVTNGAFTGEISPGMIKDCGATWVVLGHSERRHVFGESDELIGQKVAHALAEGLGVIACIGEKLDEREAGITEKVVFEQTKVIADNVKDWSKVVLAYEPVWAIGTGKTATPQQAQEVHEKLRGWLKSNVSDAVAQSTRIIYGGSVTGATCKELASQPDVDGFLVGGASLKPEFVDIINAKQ

On to “10 kDa heat shock protein (natural protein)”, for which the stoichiometry N in experiment [1] turned out to be 7. The substance “triosephosphate isomerase, isoform 2, initiator methionine removed (enzyme)” returned a stoichiometry N in experiment [2] of 2.
